According to PMC9812370 (Cell Reports, 2023):

Target: SARS-CoV-2 wild-type (D614G) HexaPro S protein ectodomain (SARS-CoV-2 Wuhan-Hu-1 with D614G …, D614G)
Experiment: ELISA

B1: Fab 4A8 (Fab, V domains shown)
VH: EVQLVESGAEVKKPGASVKVSCKVSGYTLTELSMHWVRQAPGKGLEWMGGFDPEDGETMYAQKFQGRVTMTEDTSTDTAYMELSSLRSEDTAVYYCATSTAVAGTPDLFDYYYGMDVWGQGTTVTVSS
VL: EIVMTQSPLSSPVTLGQPASISCRSSQSLVHSDGNTYLSWLQQRPGQPPRLLIYKISNRFSGVPDRFSGSGAGTDFTLKISRVEAEDVGVYYCTQATQFPYTFGQGTKVDIK
binding result: binds
